# From patent US20240058465A1 (SUTRO BIOPHARMA, published 2024)
# Numbering of substitutions follows the chain as printed.
# B1: SRP2188-A06 (antibody, IgG1, V domains shown)
# VH: EVQLVESGGGLVQPGGSLRLSCAASGFNIKSYDIHWVRQAPGKGLEWVGWINPDDGDTYHADSVKGRFTISADTSKNTAYLQMNSLRAEDTAVYYCARDYGVFDYWGQGTLVTVSS
# VL: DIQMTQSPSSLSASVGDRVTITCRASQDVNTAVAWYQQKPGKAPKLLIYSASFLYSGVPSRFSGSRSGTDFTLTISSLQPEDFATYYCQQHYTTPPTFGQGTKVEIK
# notes: IgG1 with trastuzumab LC; HIS- and FLAG-tagged; cell-free expressed
# B2: SRP2188-B02 (antibody, IgG1, V domains shown)
# VH: B1 VH with K30S, H60L, N77S
# VL: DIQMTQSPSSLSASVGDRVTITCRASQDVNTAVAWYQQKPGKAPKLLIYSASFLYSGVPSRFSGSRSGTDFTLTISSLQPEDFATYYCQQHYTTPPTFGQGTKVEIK
# notes: as for B1
# B3: SRP2188-B11 (antibody, IgG1, V domains shown)
# VH: B1 VH with K30N, S31R, Y59F, H60L, N77S
# VL: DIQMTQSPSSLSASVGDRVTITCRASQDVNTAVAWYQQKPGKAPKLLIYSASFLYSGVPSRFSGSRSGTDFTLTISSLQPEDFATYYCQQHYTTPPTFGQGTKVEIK
# notes: as for B1
# B4: SRP2188-C01 (antibody, IgG1, V domains shown)
# VH: B1 VH with K30I, G49S, W50L, N52D, D54H, D57S, Y59D, H60S
# VL: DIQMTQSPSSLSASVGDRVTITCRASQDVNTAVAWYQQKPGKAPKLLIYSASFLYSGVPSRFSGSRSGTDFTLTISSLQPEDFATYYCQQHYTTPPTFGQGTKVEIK
# notes: as for B1
# B5: SRP2188-C06 (antibody, IgG1, V domains shown)
# VH: B1 VH with K30N, H60L
# VL: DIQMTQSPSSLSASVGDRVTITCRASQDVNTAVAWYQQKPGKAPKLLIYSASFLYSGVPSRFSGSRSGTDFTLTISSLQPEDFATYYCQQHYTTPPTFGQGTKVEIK
# notes: as for B1
# B6: SRP2188-C08 (antibody, IgG1, V domains shown)
# VH: B1 VH with Y32H
# VL: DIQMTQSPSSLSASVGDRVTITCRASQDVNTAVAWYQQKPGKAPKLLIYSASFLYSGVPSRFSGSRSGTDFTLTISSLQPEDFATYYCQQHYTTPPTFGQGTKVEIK
# notes: as for B1
# B7: SRP2188-C10 (antibody, IgG1, V domains shown)
# VH: B1 VH with K30N
# VL: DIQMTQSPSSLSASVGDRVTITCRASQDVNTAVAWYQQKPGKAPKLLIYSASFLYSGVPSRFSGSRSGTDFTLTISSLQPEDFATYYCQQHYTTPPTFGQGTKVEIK
# notes: as for B1
# B8: SRP2188-E07 (antibody, IgG1, V domains shown)
# VH: B1 VH with K30G, S31D, D33G, W50G, N52D, D54E, D57F, Y59V, F103Y
# VL: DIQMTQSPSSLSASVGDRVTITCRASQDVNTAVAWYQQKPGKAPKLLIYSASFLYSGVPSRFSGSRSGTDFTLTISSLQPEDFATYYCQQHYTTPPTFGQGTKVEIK
# notes: as for B1
# B9: SRP2196-A08 (antibody, V domains shown)
# VH: EVQLVESGGGLVQPGGSLRLSCAASGFNITGYYIHWVRQAPGKGLEWVGYISPNSGSTYKADSVKGRFTISADTSRNTAYLQMNSLRAEDTAVYYCARDSRRYVRSWDYWGQGTLVTVSS
# VL: QAVVTQESALTTSPGETVTLTCRSSTGAVTTSNYANWVQEKPDHLFTGLIGGTNKRAPGVPARFSGSLIGDKAALTITGAQTEDEAIYFCALWYSNLWVFGGGTKLTVL
# notes: His/FLAG-tagged IgG1
# B10: SRP2196-A10 (antibody, V domains shown)
# VH: B9 VH with S57A, Y59H, K60Y, T74I, R76K, Y94H
# VL: B9 VL
# notes: His/FLAG-tagged IgG1
# B11: SRP2196-A11 (antibody, V domains shown)
# VH: B9 VH with Y50Q, S57T, K60D, R76K, S106G
# VL: B9 VL
# notes: His/FLAG-tagged IgG1
# B12: SRP2196-B01 (antibody, V domains shown)
# VH: B9 VH with Y50Q, S57Y, K60Y, R76K, A79T
# VL: B9 VL
# notes: His/FLAG-tagged IgG1
# B13: SRP2196-B02 (antibody, V domains shown)
# VH: B9 VH with G31Q, S57Q, K60D, R76K
# VL: B9 VL
# notes: His/FLAG-tagged IgG1
# B14: SRP2196-B03 (antibody, V domains shown)
# VH: B9 VH with V12A, S57A, Y59H, K60Y, R76K, S106P, W107F
# VL: B9 VL
# notes: His/FLAG-tagged IgG1
# B15: SRP2196-B04 (antibody, V domains shown)
# VH: B9 VH with G31E, S57A, K60Q, R76K, S106G
# VL: B9 VL
# notes: His/FLAG-tagged IgG1
# B16: SRP2196-B06 (antibody, V domains shown)
# VH: B9 VH with Y50Q, K60S, R76K, R105L
# VL: B9 VL
# notes: His/FLAG-tagged IgG1
# B17: SRP2196-B09 (antibody, V domains shown)
# VH: B9 VH with G15E, G31E, K60Y, R76K
# VL: B9 VL
# notes: His/FLAG-tagged IgG1; also called Antibody 160
# B18: SRP2196-B10 (antibody, V domains shown)
# VH: B9 VH with Y50S, S52T, N54L, S57A, Y59S, R76K, V104I
# VL: B9 VL
# notes: His/FLAG-tagged IgG1; also called Antibody 167
# B19: SRP2196-B11 (antibody, V domains shown)
# VH: B9 VH with K43R, Y50Q, S57Y, K60Y, R76K, V104I
# VL: B9 VL
# notes: His/FLAG-tagged IgG1
# B20: SRP2196-C01 (antibody, V domains shown)
# VH: B9 VH with T30I, Y50S, S52T, N54L, S57A, Y59S, R76K, V104I
# VL: B9 VL
# notes: His/FLAG-tagged IgG1
# B21: SRP2196-C02 (antibody, V domains shown)
# VH: B9 VH with Y33H, Y50F, S57W, K60S, R76K, S106P, W107F
# VL: B9 VL
# notes: His/FLAG-tagged IgG1
# B22: SRP2196-C03 (antibody, V domains shown)
# VH: B9 VH with Y50Q, K60S, R76K, N84S, R105L
# VL: B9 VL
# notes: His/FLAG-tagged IgG1
# B23: SRP2196-C04 (antibody, V domains shown)
# VH: B9 VH with Y50F, S52A, N54L, Y59H, K60N, R76K, D99E, R105N, S106P
# VL: B9 VL
# notes: His/FLAG-tagged IgG1; also called Antibody 162
# B24: SRP2196-A09 (antibody, V domains shown)
# VH: B9 VH with Y50Q, S57A, Y59H, K60Y, R76K, V104I
# VL: B9 VL
# notes: His/FLAG-tagged IgG1
# B25: SRP1944-A07 w SP34 LC3 (antibody, V domains shown)
# VH: B9 VH with K60Y, R76K, S106P, W107F
# VL: QTVVTQEPSLTVSPGGTVTLTCGSSTGAVTSGYYPNWFQQKPGQAPRGLIGGTKFLAPGTPARFSGSLLGGKAALTLSGVQPEDEAEYYCALWYSNRWVFGGGTQLTVTG
# notes: Parent of SRP2196; IgG
# Legend:
# [1] = target: T1, human ROR1 (hROR1) expressed on cells (human, UniProt Q01973 30-937); experiment: flow cytometry, HCT116-hROR1 cells
# T1 construct: Mino cells are the target positive cells of the killing assay; also called receptor tyrosine kinase like orphan receptor 1; HCT 116-hROR1
# Procedure: (§1) A mix of ROR1 positive and negative cells was prepared as follows. Ror1 negative cells were washed 2× in PBS then incubated in PBS containing 1 nM CellTrace™ Oregon Green488® (Life Technologies) at 37° C. for 30 minutes. Cells were then washed 2× with RPMI w/10% fetal calf serum (or FCS), washed 2× with FACS buffer (PBS+0.5% BSA), suspended thoroughly in ice-cold FACS buffer at a final concentration of 4×10^6 cells/ml and kept on ice. ROR1 positive cells were washed 2× in PBS and suspended with ice-cold FACS buffer at 4×10^6 cells/ml. ROR1 positive and negative cells were then mixed to obtain a 1-1 cell suspension and seeded at 50 μl per well on 96 well polypropylene plates. 50 μl of 6-12 point dilutions of anti-ROR1 variants starting from concentrations of ˜100-200 nM antibody was dispensed using BioMekFX (Beckman Coulter) into each well. Cells were then incubated on ice for 1 hr, washed with FACS buffer and incubated for 1 hr on ice with 50 μl FACS buffer containing 2.5 μg/ml Alexa647-conjugated Goat Anti-Human IgG dispensed using BioMekFX (Beckman Coulter). Cells were then washed 2× with FACS buffer and fixed for 10 minutes in 200 μl PBS with 2% PFA prior to fluorescence detection. Samples were acquired using a Beckton Dickinson LSRII FACS. Mean Fluorescence Intensity of ROR1 antibody binding was analyzed using FlowJo® software (Tree Star, Inc.).
# [2] = target: T2, human ROR1 (hROR1) (human, UniProt Q01973 30-937); experiment: flow cytometry, HCT116-hROR1 cells
# T2 construct: On HCT116-hROR1 transfectants, Mino cells or Ntera-2 cells, as the assay of each row says; also called receptor tyrosine kinase like orphan receptor 1
# Procedure: as §1
# [3] = target: T3, human ROR1 Frizzled domain (hROR1-Fz) (human, UniProt Q01973 165-305); experiment: SPR Biacore, IgG on anti-Fc, ROR1-Fz analyte
# T3 construct: Acro Biosystems, made in HEK293
# Procedure: Anti-Fc polyclonal antibodies were immobilized onto a CMS chip (GE Life Sciences) using amine coupling chemistry (from Amine Coupling Kit, GE Life Sciences). The immobilization steps were carried out at a flow rate of 25 μL/min in 1×HBS-EP+buffer (GE Life Sciences; 10× Stock diluted before use). The sensor surfaces were activated for 7 min with a mixture of NHS (0.05 M) and EDC (0.2 M). The Anti-Fc antibodies were injected over all 4 flow cells at a concentration of 25 ug/ml in 10 mM sodium acetate, pH 4.5, for 7 min. Ethanolamine (1 M, pH 8.5) was injected for 7 min to block any remaining activated groups.
# Off-rate and kinetic binding experiments were performed at 25° C. using 1×HBS-EP+buffer. Test and control antibodies were injected over the anti-Fc surface at concentrations of 5-10 μg/mL for 12 seconds at a flow rate of 10 μL/min on flow cells 2, 3 and 4, followed by a buffer wash for 30 seconds at the same flow rate. […] After capturing ligand (antibody) on the anti-Fc surface, the analyte (hROR1, Fz or Kr domains, Acro Biosystems, Delaware) was bound for 180 seconds, followed by a 600 second dissociation phase at a flow rate of 50 μL/min. Between each ligand capture and analyte binding cycle, regeneration was carried out using 2 injections of 10 mM Glycine pH 2.0 for 30 seconds at 30 μL/min, followed by a 30 second buffer wash step.
binder,measurement,setting,value
B1,Bmax (MFI),[1],8950 MFI
same,Kd,[1],0.02 nM
B2,Bmax (MFI),[1],9760 MFI
same,Kd,[1],0.03 nM
B3,Bmax (MFI),[1],8730 MFI
same,Kd,[1],0.04 nM
B4,Bmax (MFI),[1],10100 MFI
same,Kd,[1],0.38 nM
B5,Bmax (MFI),[1],9580 MFI
same,Kd,[1],0.03 nM
B6,Bmax (MFI),[1],8570 MFI
same,Kd,[1],0.03 nM
B7,Bmax (MFI),[1],9310 MFI
same,Kd,[1],0.05 nM
B8,Bmax (MFI),[1],7600 MFI
same,Kd,[1],0.02 nM
B9,Bmax (MFI),[2],13900 MFI
same,Kd,[2],0.2 nM
same,Kd,[3],4.26 nM
same,koff,[3],0.00078 s⁻¹
same,kon,[3],183000 M⁻¹ s⁻¹
B10,Bmax (MFI),[2],14400 MFI
same,Kd,[2],0.3 nM
same,Kd,[3],2.78 nM
same,koff,[3],0.000479 s⁻¹
same,kon,[3],172000 M⁻¹ s⁻¹
B11,Bmax (MFI),[2],14000 MFI
same,Kd,[2],< 0.05 nM
same,Kd,[3],4.16 nM
same,koff,[3],0.000792 s⁻¹
same,kon,[3],191000 M⁻¹ s⁻¹
B12,Bmax (MFI),[2],15300 MFI
same,Kd,[2],0.3 nM
same,Kd,[3],3.06 nM
same,koff,[3],0.000401 s⁻¹
same,kon,[3],131000 M⁻¹ s⁻¹
B13,Bmax (MFI),[2],14900 MFI
same,Kd,[2],0.3 nM
same,Kd,[3],1.39 nM
same,koff,[3],0.000227 s⁻¹
same,kon,[3],163000 M⁻¹ s⁻¹
B14,Bmax (MFI),[2],15600 MFI
same,Kd,[2],0.6 nM
same,Kd,[3],7.64 nM
same,koff,[3],0.000945 s⁻¹
same,kon,[3],124000 M⁻¹ s⁻¹
B15,Bmax (MFI),[2],14400 MFI
same,Kd,[2],0.5 nM
same,Kd,[3],2.78 nM
same,koff,[3],0.000352 s⁻¹
same,kon,[3],127000 M⁻¹ s⁻¹
B16,Bmax (MFI),[2],14800 MFI
same,Kd,[2],0.4 nM
same,Kd,[3],2.98 nM
same,koff,[3],0.000423 s⁻¹
same,kon,[3],142000 M⁻¹ s⁻¹
B17,Bmax (MFI),[2],15000 MFI
same,Kd,[2],0.6 nM
same,Kd,[3],3.28 nM
same,koff,[3],0.000427 s⁻¹
same,kon,[3],130000 M⁻¹ s⁻¹
B18,Bmax (MFI),[2],14700 MFI
same,Kd,[2],0.3 nM
same,Kd,[3],2.61 nM
same,koff,[3],0.000334 s⁻¹
same,kon,[3],128000 M⁻¹ s⁻¹
B19,Bmax (MFI),[2],14700 MFI
same,Kd,[2],0.2 nM
same,Kd,[3],4.36 nM
same,koff,[3],0.000597 s⁻¹
same,kon,[3],137000 M⁻¹ s⁻¹
B20,Bmax (MFI),[2],15700 MFI
same,Kd,[2],0.3 nM
same,Kd,[3],3.66 nM
same,koff,[3],0.000457 s⁻¹
same,kon,[3],125000 M⁻¹ s⁻¹
B21,Bmax (MFI),[2],15300 MFI
same,Kd,[2],0.6 nM
same,Kd,[3],3.02 nM
same,koff,[3],0.00036 s⁻¹
same,kon,[3],119000 M⁻¹ s⁻¹
B22,Bmax (MFI),[2],15000 MFI
same,Kd,[2],0.4 nM
same,Kd,[3],3.23 nM
same,koff,[3],0.000461 s⁻¹
same,kon,[3],143000 M⁻¹ s⁻¹
B23,Bmax (MFI),[2],13800 MFI
same,Kd,[2],0.5 nM
same,Kd,[3],5.35 nM
same,koff,[3],0.000704 s⁻¹
same,kon,[3],131000 M⁻¹ s⁻¹
B24,Bmax (MFI),[2],14600 MFI
same,Kd,[2],0.2 nM
same,Kd,[3],3.79 nM
same,koff,[3],0.000568 s⁻¹
same,kon,[3],150000 M⁻¹ s⁻¹
B25,Bmax (MFI),[2],13200 MFI
same,Kd,[2],0.1 nM
same,Kd,[3],14.3 nM
same,koff,[3],0.0085 s⁻¹
same,kon,[3],597000 M⁻¹ s⁻¹
